# Laboratory results as given in article PMC2074667.
# Experiments:
# [1] = biological target: high-affinity cell-surface IFN-alpha receptor of human lung carcinoma cells (human (endogenous in PC9 and other lung carcinoma cell lines)); assay: radioligand binding; PC9 cells in suspension (200 ul of 5 x 10^6 cells/ml) incubated at room temperature for 2 h with 0.1-4 nM [125I]IFN-a; non-specific binding measured with 100-fold excess of unlabelled IFN-a; Scatchard analysis
# [2] = biological target: high-affinity cell-surface IFN-alpha receptor of human lung carcinoma cells (human (endogenous in PC9 and other lung carcinoma cell lines)); assay: radioligand binding; several lung carcinoma cell lines (lines not named) in suspension, room temperature, 2 h, 0.1-4 nM [125I]IFN-a; non-specific binding measured with 100-fold excess of unlabelled IFN-a; Scatchard analysis
substance,measurement,setting,value
"Pure recombinant human IFN-alpha, labelled with 125I (from UniProt P01563 24-188) (ligand)",Kd,[1],0.042 nM
same,Kd,[2],0.02 to 0.1 nM
